Legend:
[1] = target: T1, human CD22-beta-ECD-His tagged soluble antigen (human, UniProt P20273 22-681); experiment: SPR (BIACORE 3000), antibody coupled to the chip, soluble CD22-beta-ECD-His injected, 25 C
T1 construct: also called soluble CD22 extracellular domain (ECD); Soluble Human CD22
T1 sequence: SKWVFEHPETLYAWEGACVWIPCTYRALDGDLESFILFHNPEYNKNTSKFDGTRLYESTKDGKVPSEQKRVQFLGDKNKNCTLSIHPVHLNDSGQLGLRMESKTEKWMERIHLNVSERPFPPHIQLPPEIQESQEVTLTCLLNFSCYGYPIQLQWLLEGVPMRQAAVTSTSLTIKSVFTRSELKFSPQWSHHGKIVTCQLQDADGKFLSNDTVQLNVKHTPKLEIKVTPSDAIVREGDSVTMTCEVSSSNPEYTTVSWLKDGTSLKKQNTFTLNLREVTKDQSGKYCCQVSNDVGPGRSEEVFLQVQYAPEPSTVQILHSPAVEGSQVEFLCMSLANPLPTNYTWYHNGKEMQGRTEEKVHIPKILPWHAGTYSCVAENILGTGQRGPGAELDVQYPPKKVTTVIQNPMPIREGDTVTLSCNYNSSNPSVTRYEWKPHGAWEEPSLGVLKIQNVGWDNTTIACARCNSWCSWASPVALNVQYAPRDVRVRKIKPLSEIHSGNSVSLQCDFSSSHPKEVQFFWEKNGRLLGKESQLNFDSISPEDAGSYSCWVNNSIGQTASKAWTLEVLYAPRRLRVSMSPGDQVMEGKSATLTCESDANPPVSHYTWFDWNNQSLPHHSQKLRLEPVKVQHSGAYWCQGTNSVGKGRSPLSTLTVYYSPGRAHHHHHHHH
Protocol: The binding affinity of murine and humanized 10F4 antibody for soluble CD22 extracellular domain (ECD) was determined by surface plasmon resonance measurement using a BIACORE® 3000 system (Biacore, Inc., Piscataway, N.J.). Briefly, carboxymethylated dextran biosensor chips (CMS, Biacore Inc.) were activated with N-ethyl-N′-(3-dimethylaminopropyl)-carbodiimide hydrochloride (EDC) and N-hydroxysuccinimide (NHS) according to the supplier's instructions. These activated chips were coated with anti-CD22 IgG1 antibody 10F4 (murine or humanized) by dilution to 5 μg/ml with 10 mM sodium acetate, pH 4.8, before injection at a flow rate of […] to achieve approximately 500 response units (RU) of coupled antibody. Next, 1M ethanolamine was injected to block unreacted groups. […] Association rates (kₒₙ) and dissociation rates (koff) were calculated using a simple one-to-one Langmuir binding model (BIAevaluation Software version 3.2). The equilibrium dissociation constant (Kd) was calculated as the ratio koff/kₒₙ. Anti-CD22 antibody, RFB4, was used as a control (Chemicon International, Inc., Temecula, Calif., catalog no. CBL147).

[2] = target: T2, cynomolgus monkey (cyno) CD22 expressed on the surface of CHO cells (cynomolgus monkey); experiment: cell-based competitive binding of 125I-labelled against unlabelled antibody on CHO cells, 4 h at 4 C, Scatchard analysis
T2 construct: residues 1-19 (signal) should be removed
T2 chain: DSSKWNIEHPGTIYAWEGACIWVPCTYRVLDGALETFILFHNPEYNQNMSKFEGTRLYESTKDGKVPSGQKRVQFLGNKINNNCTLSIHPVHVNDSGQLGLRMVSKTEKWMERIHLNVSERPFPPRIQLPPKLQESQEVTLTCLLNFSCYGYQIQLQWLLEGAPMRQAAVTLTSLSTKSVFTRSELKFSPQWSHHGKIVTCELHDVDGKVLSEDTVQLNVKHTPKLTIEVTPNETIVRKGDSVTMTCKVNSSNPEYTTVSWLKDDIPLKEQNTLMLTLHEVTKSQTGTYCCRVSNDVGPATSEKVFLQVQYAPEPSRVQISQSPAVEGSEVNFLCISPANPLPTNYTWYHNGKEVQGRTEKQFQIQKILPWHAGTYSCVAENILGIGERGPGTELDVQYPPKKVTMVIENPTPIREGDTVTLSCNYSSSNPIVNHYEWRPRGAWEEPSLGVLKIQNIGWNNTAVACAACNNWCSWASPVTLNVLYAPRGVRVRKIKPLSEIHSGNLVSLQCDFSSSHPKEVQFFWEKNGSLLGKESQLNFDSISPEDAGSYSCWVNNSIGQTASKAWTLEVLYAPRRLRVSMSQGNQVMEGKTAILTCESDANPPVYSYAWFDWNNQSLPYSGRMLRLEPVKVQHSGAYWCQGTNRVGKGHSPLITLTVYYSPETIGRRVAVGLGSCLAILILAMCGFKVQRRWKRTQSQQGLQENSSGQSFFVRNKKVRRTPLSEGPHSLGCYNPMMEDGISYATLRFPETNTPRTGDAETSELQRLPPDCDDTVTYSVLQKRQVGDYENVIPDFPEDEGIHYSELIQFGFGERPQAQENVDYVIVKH
Protocol: (§1) Briefly, CHO cells stably expressing full length human CD22 (SEQ ID NO:27) or cynomolgus monkey (cyno) CD22 (SEQ ID NO:31). […] A cell-based, competitive binding assay was performed using serially diluted, unlabeled anti-CD22 antibody. Antibodies were allowed to bind to the cells for 4 hours at 4° C. Binding affinity, KD, of the antibodies was determined in accordance with standard Scatchard analysis performed utilizing a non-linear curve fitting program (see, for example, Munson et al., Anal Biochem, 107: 220-239, 1980).

[3] = target: T3, full length human CD22 (CD22beta) expressed on the surface of CHO cells (human, UniProt P20273 22-847); experiment: as above
T3 construct: CHO cells stably expressing full length human CD22; also called CD22beta (control cells)
Protocol: as §1

B1: murine anti-human CD22 10F4.4.1 monoclonal antibody (antibody, V domains shown)
VH: QVQLQQSGPELVKPGASVKISCKASGYEFSRSWMNWVKQRPGQGREWIGRIYPGDGDTNYSGKFKGKATLTADKSSSTAYMQLSSLTSVDSAVYFCARDGSSWDWYFDVWGAGTTVTVSS
VL: DILMTQTPLSLPVSLGDQASISCRSSQSIVHSNGNTFLEWYLQKPGQSPKLLIYKVSNRFSGVPDRFSGSGSGTDFTLKISRVEAEDLGVYYCFQGSQFPYTFGGGTKVEIK
notes: Murine hybridoma antibody (ATCC PTA-7621); also called mu 10F4; Mu 10F4.4.1
B1 was tested, and the Kd [1] was 15 nM, the koff [1] was 0.00028 s⁻¹ and the kon [1] was 19000 M⁻¹ s⁻¹. It also gave a Kd [2] of 2.3 nM and a Kd [3] of 2.4 nM.

From US20130171170A1 (published 2013)
